Patent US20130101605A1

Legend:
[1] = molecular target: RGM of chick tectal membranes (chick) (UniProt Q8JG54); assay: cell-based or functional assay
[2] = molecular target: mouse Neogenin expressed on COS-7 cells (mouse) (UniProt P97798); assay: AP fusion binding to transfected COS-7 cells, saturation and Scatchard analysis
[3] = molecular target: DCC (Deleted in Colorectal Cancer) expressed on COS-7 cells; assay: RGM-AP binding to transfected COS-7 cells

UniProt Q8JG54, sequence (Q8JG54 150-404 limits assumed): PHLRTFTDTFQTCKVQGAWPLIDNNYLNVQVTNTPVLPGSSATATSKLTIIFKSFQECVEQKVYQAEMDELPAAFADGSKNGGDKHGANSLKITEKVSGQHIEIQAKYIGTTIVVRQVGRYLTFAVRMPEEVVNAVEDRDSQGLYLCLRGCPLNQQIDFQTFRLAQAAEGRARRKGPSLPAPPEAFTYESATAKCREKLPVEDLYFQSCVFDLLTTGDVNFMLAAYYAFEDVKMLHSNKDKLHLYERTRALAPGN
UniProt P97798, sequence (P97798 37-1492): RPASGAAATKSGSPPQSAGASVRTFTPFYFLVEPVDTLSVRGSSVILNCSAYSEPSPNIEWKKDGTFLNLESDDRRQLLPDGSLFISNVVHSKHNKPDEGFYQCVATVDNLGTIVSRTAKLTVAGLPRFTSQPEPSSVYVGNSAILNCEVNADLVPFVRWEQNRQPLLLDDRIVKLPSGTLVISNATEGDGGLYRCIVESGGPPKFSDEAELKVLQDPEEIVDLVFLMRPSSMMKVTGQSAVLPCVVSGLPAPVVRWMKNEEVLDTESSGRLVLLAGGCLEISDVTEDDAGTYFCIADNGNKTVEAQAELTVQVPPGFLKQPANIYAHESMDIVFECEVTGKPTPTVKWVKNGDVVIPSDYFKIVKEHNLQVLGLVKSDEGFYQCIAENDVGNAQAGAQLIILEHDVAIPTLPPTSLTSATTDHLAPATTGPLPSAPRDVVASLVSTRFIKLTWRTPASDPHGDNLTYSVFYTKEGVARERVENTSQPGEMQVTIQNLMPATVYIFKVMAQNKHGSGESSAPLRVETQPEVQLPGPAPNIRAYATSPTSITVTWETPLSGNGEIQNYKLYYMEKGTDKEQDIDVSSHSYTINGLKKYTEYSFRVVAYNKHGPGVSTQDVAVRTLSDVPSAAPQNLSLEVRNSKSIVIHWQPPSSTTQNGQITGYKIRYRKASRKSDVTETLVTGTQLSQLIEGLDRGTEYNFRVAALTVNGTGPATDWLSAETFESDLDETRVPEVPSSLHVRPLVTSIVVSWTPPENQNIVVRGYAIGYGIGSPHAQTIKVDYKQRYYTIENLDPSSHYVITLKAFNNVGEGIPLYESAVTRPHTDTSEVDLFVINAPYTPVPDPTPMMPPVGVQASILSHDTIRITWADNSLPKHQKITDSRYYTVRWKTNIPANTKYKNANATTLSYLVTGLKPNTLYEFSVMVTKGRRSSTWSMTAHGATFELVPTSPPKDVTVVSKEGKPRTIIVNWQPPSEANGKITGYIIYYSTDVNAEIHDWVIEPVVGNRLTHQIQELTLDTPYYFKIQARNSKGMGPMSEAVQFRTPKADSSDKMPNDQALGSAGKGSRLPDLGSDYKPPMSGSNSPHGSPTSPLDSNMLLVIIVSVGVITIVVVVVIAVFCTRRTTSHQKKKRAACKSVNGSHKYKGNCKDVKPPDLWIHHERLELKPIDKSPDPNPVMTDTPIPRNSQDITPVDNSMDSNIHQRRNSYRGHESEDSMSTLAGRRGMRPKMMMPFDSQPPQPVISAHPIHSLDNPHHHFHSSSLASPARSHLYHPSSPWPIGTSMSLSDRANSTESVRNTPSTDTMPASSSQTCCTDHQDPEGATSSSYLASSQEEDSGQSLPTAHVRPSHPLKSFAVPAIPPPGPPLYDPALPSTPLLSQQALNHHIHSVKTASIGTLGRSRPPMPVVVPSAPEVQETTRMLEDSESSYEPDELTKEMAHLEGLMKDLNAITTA

Row | retinotectal stripe assay: blockade of retinal axon stripe preference [1] | Kd [2] | fold lower affinity than for Neogenin [3] | Substance
1 | 400 nM |  |  | Soluble ectodomain of chick Neogenin-1 (1-1027) with a carboxyl MycHis tag (from UniProt Q90610 1-1027) (receptor)
2 |  | 230 pM | 50 fold | chick RGM-AP fusion protein (chick RGM aa 28 to 403 fused to human placental alkaline phosphatase, carboxy-terminal Myc His tag) (from UniProt Q8JG54 28-403; P05187 23-511) (ligand)
